The series can be described thus: soluble on expression in E. coli; label from the status in PepcDB or PDB records.
For the sequence “MSLDLPAHARVVIVGGGVMGVGLAYHLAHEGWGGDTVLLEKAELTSGSTWHAAGQITHSTSSFGLGKCVDYNIGLYSGKLEAETGQAVTWHGCGSFRLAYTEDEMDWLRHTLSVGRSLGFNIELVGPKRIAELHPFYNLDGVLGALHTPDDGHVDPTNVTMAMAAGARAKGVRIFRHTCATNITQGANGEWVVETGKGTITCEHVVNAGGTYARQMGEWSGLQLPMTSMTHHYFVTEPVPEFQSLDRELPVIRDDRKVSGYIRMEQKRGLIGIYEKANPNAVWIDECPWDYENWLFDADYDRVMPWLEESLNRMPIFADLGIQREVHGAISHPPDGNPLIGPAPGVRNYWCCCGTQIGIGWGPGLSRELARWIVHGAADISMRDFDPRRFGAYATKDWQVIKAREDYCLRHEIPFPHFNRLAGRPVKPSPLYDRLKEKGAVYEEVYGHERPRWFARGIEQRDHYGFGRTPVHDMVATECAAVRSAAGIMDISAFTRVEVSGPDAGALLDRLTANRLPQKPGGIALTHMLNRRGRIELETTVVKLDEDRFYLVCAAFFEQRLLDHLAAHRGTADITVRNLSTDWAALALNGPHARDILAACTEADLSNARFKWLTAQQITVAGHSLWALRMSYAGELGWELHIPRDHALAVYDALWAAGQRYGLTDYGSFAMNALRMEKAFKGAGELTNEVTLAEADVLRFARTDKDYLGRDKTLNAGNLPWVCAYLEIAPDGRFDGNGGEAVLLDGKVVGSTASVAYGHTVGKILAFAYVKPQVNVPGTEVEVIIAGNPRKGRILGAPAYDPDSTKPRADAEGHHHHHH”, the “soluble on expression in E. coli” value is “soluble”.
With “MTYILKTNQLTKVFKGKEVISSVNMHVKKGEIYGFLGPNGAGKTTIMKMITNLIKPTSGEIEIFGEKLTDTSYEVLKRMGTIIEYPIFYDKLTAKENLELHCEYMGYYDKNEIDHALHLVKLQGIDNKKVKDFSLGMKQRLGIARAIVTKPELLILDEPINGLDPIGIKELRDLFKMLCKEYGITLLVSSHILGEMELMADTIGVIQNGKLIKEVSMKSINGKQTEYIEITVPDVKRAAYILEDKLGIKNYKIMSGNMIRVYDTAVSQQAISKALIMNDVEIESINKKHSSLEEYFLNVMDGEGIHA” the entry was “not soluble”; with “MKKLAILLVCAAMLASCNGLGGGSKDLKAENDSLLMELTQRNAELDEMMGTFNEVQEGFRKINAAESRVDLTRGTISENSATAKQQIASDIEFITKQMEENKAQIAKLQAMLKSSKNNSAQLKKAVESLTQELVAKTQRIEELQAELASKNIRIQELDAAVTGLTADKESLAAENEAKAKTVAEQDKAINSAWFVFGTKSELKTQKILEKGDVLKSADFNKDYFTQIDIRTTKEIKLYSKRAELLTTHPAKSYELVKDDKGQLTLKITNPKEFWSVSKYLVIQVK”, “not soluble”; with “NRMKLMIVGNTGSGKTTLLQQLMKTKKSDLGMQSATVGIDVKDWPIQIRDKRKRDLVLNVWDFAGREEFYSTHPHFMTQRALYLAVYDLSKGQAEVDAMKPWLFNIKARASSSPVILVGTHLDVSDEKQRKACMSKITKELLNKRGFPAIRDYHFVNATEESDALAKLRKTIINESLNFKIRDQ”, “soluble”.
The value for “MEELIKKAKEYDIDINDLIIDAISRKDPKEAINLRIELAKKYITETEDYLKKGDAVQASEKAYKTAEEIVKALAEKFNIPEYQQALKEGRWYTYWLASAVNRLAKDLGDWVLNGWNSAYILHVWGFHEAKLSTADISEHLRKVKEMLDNVINIIGKLEHHHHHH” was “soluble”; that for “MAGHSKWANIKHRKAAQDAQRGKIFTKLIRELVTAAKIGGGDVSANPRLRAAVDKALSNNMTRDTINRAIDRGVGGGDDTNMETKIYEGYGPGGTAVMVECLSDNANRTISQVRPSFTKCGGNLGTEGSVGYLFSKKGLILIAEADEDALTEAAIEAGADDIQPQDDGSFEIYTAWEDLGSVRDGIEAAGFKVQEAEVTMIPSTTVDLDIETAPKLLRLIDMLEDCDDVQNVYHNGEICDEVASQL” was “not soluble”; that for “MGSDKIHHHHHHMKILYISNFNLPDFQNDMIFHGLRSVFGNDCIDSNEAWYMYEDFRNYWNVRVPENGMSYGRGFTLYGKLPKIDIDRKNIYEKIKDKYFDKIVYGSITRNNMFLDEVISIYEKNNIIMIDGEDNTEINQNFFGKGIYFKRELIYEPTSYLKPIGFCIPNETIVNNISIKEKDYGHVIPGDPETYIYTDEVSYFEDYRKSYFGVTMKKGGWDCLRHYEILMNGCIPYFLNLEQCPKYTMTHFPKNIILDVINKINTESNILNFYNEYVDILLEYTRNKLTTRKVIESIL” was “not soluble”.
Consider “MSLAPLDLDKYVEIARLCKYLPENDLKRLCDYVCDLLLEESNVQPVSTPVTVCGDIHGQFYDLCELFRTGGQVPDTNYIFMGDFVDRGYYSLETFTYLLALKAKWPDRITLLRGNHESRQITQVYGFYDECQTKYGNANAWRYCTKVFDMLTVAALIDEQILCVHGGLSPDIKTLDQIRTIERNQEIPHKGAFCDLVWSDPEDVDTWAISPRGAGWLFGAKVTNEFVHINNLKLICRAHQLVHEGYKFMFDEKLVTVWSAPNYCYRCGNIASIMVFKDVNTREPKLFRAVPDSERVIPPRTTTPYFLEGHHHHHH”, for which the “soluble on expression in E. coli” value is reported as “not soluble”.
Consider “MAYETFAFVYDEVMDESLYQKWLDFSNRHLPQGTQQILEMACGTGALAVDFAKSGYDVTALDLSEEMLMIASERAFEEEVPVQFVQGNMLDLSEVGQYQAITCFSDSLCYMANRQEVQQVFDEVYQALEEEGTFIFDVHSTYKIDSVFPEYSYHYQTEEFAFLWDSYAGEKEHSIEHFLTFFVKEQETDEHFVRYDELHQERTYSLDNYLRMLESAGFMNVKVYADFTDEAPTETSERWFFVCQRD”, for which the “soluble on expression in E. coli” value is reported as “not soluble”.
The value for “MTFAEYFKNWYIFYKKPKVSKVTLNRYQYTYNVINEYFGNKLLKDITRANYQKFIVKYGQNHSPNTMKMINNCIKACVKNAVYDEEIKKDFTYNIELISNRDNVVQLEHHHHHH” was “not soluble”.
The value for “MPHWLVIDLEATTAEGGWPLEEMEIIEIGATLVAAADARELDHFQRFVRPVRRPLLTHFCRDLTHISQANVDGAAHLNTVWEAFERWLAQHRPRLAGWASWGDYDRRQLEQEWRQHGLTSQLSEVPHVNLKQRFGEVRQLPRPVGLNAALQLAGMSFQGQQHRALEDARNTARLLPLVLPVEHLEHHHHHH” was “soluble”.
With “GSQEEDLPRPSISAEPGTVIPLGSHVTFVCRGPVGVQTFRLERESRSTYNDTEDVSQASPSESEARFRIDSVSEGNAGPYRCIYYKPPKWSEQSDYLELLVKEAAA” the entry was “soluble”.
Consider “MGSDKIHHHHHHMTTPFKRIHLIVMDSVGIGEGPDAAAFNDEGSHTLKHTLEGFKQKLPHLEQLGLGNIAPLPVVSKVTHPGAFYTKLSEASVGKDTMTGHWEIMGLNIMQPFKVYPNGFPAELVKEIESMTGRKVVANRPASGTQIIDEWGEHQMKTGDLIVYTSADPVLQIAAHEDVIPLEELYEICEKVRELTKDPKYLIGRIIARPYVGEPGNFTRTSNRHDYALKPFGRTVMNSLKDSGYDVIAIGKINDIYDGEGVTEAIRTKNNMDGMDQLIEVVKKDFEGISFLNLVDFDALYGHRRDKEGYAQAIKDFDLRLPELMNHLREDDLVIITADHGNDPIAKGTDHTREYIPLLMFSPKIKDYHELSQDTTFSSIGVTIADNFNVELPKYGKSYLKEMGVEHQ”, for which the “soluble on expression in E. coli” value is “not soluble”.
Turning to “MRQRFLPLLALLSLLLPLPAPAAPTVSTVADQTGIALTIYNRNLGLVKDRREIRLAPGNGELRFMDVAAQIIPTSVSIASLAGGELQVLEQNYEYDLLSPQKLMDKYVGKEVKLHQKNPYTEREEVVTATLLSNNGGPVYRIGDEITFGHPGRLIFPGVPDDLIARPTLVWLLEGAAVEKRTIEASYLTGGISWRADYVVTLSEKDDQANLAGWVTIDNRSGAAYRNATLKLVAGDVNRVQEQSTRFAKSVRAEAMAPAPQFQEEAFFEYHLYTLQRPSTIKENQTKQINLVTADAVPVKKEFLLKGESFYYQSPAGEVEKQKVGVFVEMENRKEHNLGMPLPKGIVRVYKRDAGGSLQFVGEDTIDHTPEKETVRVKLGDAFDVVGERKQTEWRKVASDTYESAFEIRLRNHKKEDITVKVVEPVPGDWQMLSSSHPHEKGDAFSAVFKVPVPKDGEATLVYRVRMRYLEHHHHHH”, the “soluble on expression in E. coli” value is recorded as “soluble”.

For the origin of these results see the DeepSol protein solubility set.
